Series [1] deals with GST fusion of CHD4 PHD1-2 (aa 364-506) (human) (UniProt Q14839). As to the kind of experiment: pull-down; GST-PHD1 or GST-PHD1-2 pre-bound to glutathione magnetic agarose beads; 100 ul of 50 nM nucleosome, 4°C overnight; 25 mM HEPES pH 7.4, 150 mM NaCl, 0.5 mM TCEP; bound nucleosome quantified by qPCR of the 601 DNA, normalised to input. In general terms: Quantitative PCR measures a nucleic acid by following its amplification.

A further series deals with CHD4 PHD1-2 (human). The experiment in a line: pull-down (GST), qPCR. To be noted: Pull-down: 25 mM HEPES pH 7.4, 150 mM NaCl, 0.5 mM TCEP, 4 C overnight, 50 nM nucleosome; NMR at 0 and 100 mM NaCl (buffer not in material).

Some results are limits rather than exact numbers.

UniProt Q14839, sequence (Q14839 364-506): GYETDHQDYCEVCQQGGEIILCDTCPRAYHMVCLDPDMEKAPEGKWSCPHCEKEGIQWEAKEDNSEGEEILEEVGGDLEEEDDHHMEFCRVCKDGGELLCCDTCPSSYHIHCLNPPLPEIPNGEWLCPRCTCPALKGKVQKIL

Consider “([H3.3G33R]) nucleosome core particle (from UniProt P84243 1-136; P62805 1-103; P0C0S8 1-130; P62807 1-126) (complex)”, for which the fold increase of pull-down over WT nucleosome in series [1] was above 2 fold.

H3.3 G33R nucleosome, 601 DNA came in with a binding signal (fold vs WT nucleosome) in the series on CHD4 PHD1-2 (human) above 2.

(Values after publication PMC12802913.)
